According to publication PMC2682783:

Columns and labels:
[1] = biological target: urea transporter ApUT from Actinobacillus pleuropneumoniae (Actinobacillus pleuropneumoniae); experiment: native gel or EMSA
[2] = biological target: urea transporter ApUT from Actinobacillus pleuropneumoniae (Actinobacillus pleuropneumoniae); experiment: cross-linking
[3] = biological target: urea transporter ApUT from Actinobacillus pleuropneumoniae (Actinobacillus pleuropneumoniae); experiment: electron microscopy of negatively stained 2D crystals

stoichiometry N [1]: 2
stoichiometry N [2]: 2
stoichiometry N [3]: 2
Substance: urea transporter ApUT from Actinobacillus pleuropneumoniae (from UniProt A0A2Z6AQW9 1-300) (natural protein)
